Assay results published in PMC13279940.

Biological target: Pseudomonas aeruginosa QatC with C-terminal 6xHis tag (Pseudomonas aeruginosa)
Experiment: mass photometry; Refeyn TwoMP; purified protein diluted to 200 nM in gel filtration buffer (20 mM HEPES-KOH pH 7.5, 250 mM KCl, 1 mM TCEP), 1 uL mixed into a 16 uL drop; QatA in the absence of DNA

In the case of “Pseudomonas aeruginosa QatB (natural protein)”, the stoichiometry N was 1.
